Results published in the Human Domainome abundance scans (Beltran et al. 2025).

B1: Mineralocorticoid receptor, residues 600 to 675; numbered along this chain, P08235 (parent)
chain: SKICLVCGDEASGCHYGVVTCGSCKVFFKRAVEGQHNYLCAGRNDCIIDKIRRKNCPACRLQKCLQAGMNLGARKS

Variants of: B1
Test: abundance fitness (aPCA) (normalised: wild type 0, dead -1); higher = more abundant; growth selection in yeast, the domain comes from the species named
Details: Homo sapiens

Abundance fitness, by site and new letter:
C40: R -1 | I -0.759 | F -1.13 | V -1.23 | W -0.697 | L -0.847 | K -0.73 | D -0.819 | H -0.341 | T -0.68 | N -0.477 | S -1.05 | A -0.816 | G -0.986 | Y -0.737 | E -0.646
N37: H -0.051 | A -0.027 | C -0.036 | I -0.058 | V 0.026 | K 0.031 | Y -0.085 | M -0.076 | Q -0.017 | G -0.061 | F -0.264 | D -0.02 | P -0.083 | T -0.029 | W -0.23 | S -0.043 | E 0.068 | R 0.01
G42: Q 0.032 | P -0.621 | L -0.009 | A 0.005 | I -0.033 | Y -0.051 | S 0.023 | N -0.025 | V 0.005 | W -0.126 | F -0.044 | C -0.088 | M 0.045 | R -0.062 | T -0.099 | D 0.051
V32: F -0.013 | K -0.004 | D -0.035 | P -0.682 | H -0.158 | N -0.08 | Y -0.1 | E -0.004 | M 0.114 | G -0.228 | A 0.023 | W -0.24 | I 0.019 | Q -0.017 | R -0.095
A41: V -0.053 | F -0.277 | N -0.079 | L -0.103 | K -0.149 | H -0.033 | Y 0.001 | E 0.129 | S -0.077 | R -0.021 | G 0.028 | T -0.048 | P -0.116 | M 0.052 | D 0.036 | C -0.017 | Q -0.074 | W -0.127
H36: L -0.087 | G -0.012 | Y -0.043 | T -0.022 | I -0.022 | P -0.021 | M -0.046 | Q -0.004 | W -0.157 | S 0.01 | C -0.042 | K -0.138 | N 0.001 | F -0.023 | E -0.004 | A 0.025 | D 0.005
A31: L -0.553 | V 0.194 | G 0.001 | H -0.616 | E -0.022 | M 0.474 | S -0.022 | F -0.104
L39: S -0.05 | D 0.048 | R -0.019 | P -0.07 | F -0.027 | M 0.016 | K -0.009 | G -0.045 | I -0.043 | A -0.093 | Q -0.001 | T -0.077 | E -0.047 | V -0.007 | C 0.027 | Y -0.054
F28: Q -0.582 | P -1.21 | H -0.445 | G -0.647 | V -0.322 | D -0.782 | S -0.361 | M -0.101 | A -0.263 | W 0.037 | N -0.647 | R -0.898 | K -0.856 | E -0.749 | C -0.364 | Y -0.095
V26: C -0.1 | D 0.024 | I 0.031 | N -0.123 | H -0.03 | W 0.009 | E -0.022 | K 0.008 | A -0.044 | L -0.049 | Q 0.001 | R 0.033 | Y 0.005 | M -0.058
C46: E -0.852 | A -0.744 | F -0.653 | K -0.839 | I -0.827 | G -0.636 | H -0.011 | D -0.785 | L -0.819
R30: H 0.043 | P 0.293 | Y -0.121 | W -0.29
